Measurements published in paper PMC11955523, “Cryo-TEM structure of β-glucocerebrosidase in complex with its transporter LIMP-2” (Nature Communications, 2025).

T1: β-glucocerebrosidase (GCase), untagged wild type (human, UniProt P04062 40-536, N-glycans at N19, N59, N146, N270)
T1 construct: β-glucocerebrosidase (GCase), human, gene GBA1, wild type, expressed from the commercial plasmid pCMV3-GBA-wt; also called GCase wt; wt GCase; source: HEK 293F-sL2 cells transfected with pCMV3-GBA-wt, secreted in complex with sLIMP-2, purified (Ni-NTA, SEC); HEK 293F cells co-transfected with sLIMP-2 plasmids, in conditioned medium
T1 sequence (looked up): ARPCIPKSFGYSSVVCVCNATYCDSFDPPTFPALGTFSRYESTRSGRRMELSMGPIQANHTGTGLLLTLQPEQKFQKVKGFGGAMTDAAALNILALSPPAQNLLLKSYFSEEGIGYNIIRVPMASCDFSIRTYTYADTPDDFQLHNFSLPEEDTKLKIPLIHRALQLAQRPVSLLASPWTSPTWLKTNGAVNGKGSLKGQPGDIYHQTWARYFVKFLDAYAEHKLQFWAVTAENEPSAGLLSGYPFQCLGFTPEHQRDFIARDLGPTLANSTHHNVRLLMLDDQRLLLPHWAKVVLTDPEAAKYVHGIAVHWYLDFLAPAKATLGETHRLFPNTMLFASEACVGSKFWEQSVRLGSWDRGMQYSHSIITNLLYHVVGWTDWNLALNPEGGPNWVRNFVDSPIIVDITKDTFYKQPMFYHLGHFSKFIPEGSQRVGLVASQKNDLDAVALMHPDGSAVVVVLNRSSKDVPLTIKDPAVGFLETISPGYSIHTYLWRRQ

T2: recombinant GCase with C-terminal His10-tag (for cross-linking with SapC) (human, UniProt P04062 40-536)
T2 construct: β-glucocerebrosidase (GCase), with a small spacer and a TEV protease cleavage site before the C-terminal His10-tag; no TEV cleavage is described; source: FreeStyle 293 HEK cells, stably transfected (pcDNA3.1(+)), purified from cell media (HisTrap)
T2 sequence (looked up): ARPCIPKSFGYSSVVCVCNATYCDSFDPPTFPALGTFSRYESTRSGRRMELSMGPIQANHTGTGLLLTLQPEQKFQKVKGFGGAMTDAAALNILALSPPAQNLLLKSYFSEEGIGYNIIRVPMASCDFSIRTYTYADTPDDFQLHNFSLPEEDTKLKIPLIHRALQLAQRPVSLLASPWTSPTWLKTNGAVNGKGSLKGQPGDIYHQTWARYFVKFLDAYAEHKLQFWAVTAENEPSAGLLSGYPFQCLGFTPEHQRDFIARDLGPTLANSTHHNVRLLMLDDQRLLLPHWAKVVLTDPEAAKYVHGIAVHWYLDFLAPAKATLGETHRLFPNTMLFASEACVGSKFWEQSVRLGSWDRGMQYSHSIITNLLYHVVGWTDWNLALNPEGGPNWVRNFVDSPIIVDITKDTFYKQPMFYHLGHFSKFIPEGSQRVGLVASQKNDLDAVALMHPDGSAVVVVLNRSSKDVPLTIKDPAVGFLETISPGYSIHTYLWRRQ


Legend:
Conditions in all cases: both partners purified
[1] = target: T1, β-glucocerebrosidase (GCase), untagged …; test: cryo-EM structure; GCase/sLIMP-2/PMb1/PMb2 complex from SEC, 0.6 mg/ml, single particle analysis, 3.7 Å global resolution
[2] = target: T3, β-glucocerebrosidase (GCase), untagged wild type (human, UniProt P04062, N-glycans at N19, N59, N146, N270); test: as above
T3 construct: β-glucocerebrosidase (GCase), human, gene GBA1, wild type, expressed from the commercial plasmid pCMV3-GBA-wt; also called GCase wt; wt GCase; source: HEK 293F-sL2 cells transfected with pCMV3-GBA-wt, secreted in complex with sLIMP-2, purified (Ni-NTA, SEC); HEK 293F cells co-transfected with sLIMP-2 plasmids, in conditioned medium

[3] = target: T4, GCase used for size exclusion chromatography with Nb1 and Nb6 (human, UniProt P04062); test: SEC; 20 µM GCase mixed with 100 µM Nb1, Nb6 or both; Superdex 200 Increase 5/150 GL, 10 mM MES, 100 mM NaCl, 1 mM DTT, 5% glycerol, pH 5.2, 12 °C
T4 construct: β-glucocerebrosidase (GCase); it may be the same as m8 or another recombinant GCase

[4] = target: T2, recombinant GCase with C-terminal …; test: cross-linking; GCase 16.3-20.0 µM and SapC 32.5 µM in McIlvaine buffer pH 6.0 with 10 mM NaCl (some reactions with 0.1% Triton X-100 and 0.25% sodium taurocholate); BS3(d0)/BS3(d4) or DTSSP at 1 mM, 1 h at room temperature; gel bands read by mass spectrometry

Row | Binder | binding result [2] | binding result [3] | further results
1 | soluble LIMP-2 shuttle construct (sLIMP-2), secreted LIMP-2 ectodomain, wild type (domain or fragment, human, UniProt Q14108 36-431, looked up, N-glycans at N45, N68, N105, N206, N224, N249, N304, N325, N412, lysosomal integral membrane protein type-2 (LIMP-2), human, gene SCARB2, amino acids 36-431 (ectodomain); the 10xHis tag is TEV-cleavable, and no cleavage is described; also called wt sLIMP-2; lysosomal integral membrane protein type-2; source: HEK 293F cells transfected, in conditioned medium; not shown: His10, C-terminal, kept) SIEKKIVLRNGTEAFDSWEKPPLPVYTQFYFFNVTNPEEILRGETPRVEEVGPYTYRELRNKANIQFGDNGTTISAVSNKAYVFERDQSVGDPKIDLIRTLNIPVLTVIEWSQVHFLREIIEAMLKAYQQKLFVTHTVDELLWGYKDEILSLIHVFRPDISPYFGLFYEKNGTNDGDYVFLTGEDSYLNFTKIVEWNGKTSLDWWITDKCNMINGTDGDSFHPLITKDEVLYVFPSDFCRSVYITFSDYESVQGLPAFRYKVPAEILANTSDNAGFCIPEGNCLGSGVLNVSICKNGAPIIMSFPHFYQADERFVSAIEGMHPNQEDHETFVDINPLTGIILKAAKRFQINIYVKKLDDFVETGDIRTMVFPVMYLNESVHIDKETASRLKSMINT | – | – | binding result [1]: binds
2 | pro-macrobody PMb2 (nanobody Nb6, CA16669, fused to maltose binding protein) (VHH, nanobody Nb6 (CA16669) raised against GCase; proline-proline linker, told in words; The N-terminal pelB-10xHis-MBP was removed with 3C protease; Only the nanobody domain is modelled in PDB 9FJF; also called PMbs; source: E. coli MC1061, purified (Ni-NTA, 3C cleavage, second IMAC, SEC); not shown: His10, N-terminal, cleaved; MBP, N-terminal, cleaved) VHH: QVQLVESGGGLVQPGGSLRLSCAASGSIFSINTMGWYRQAPGKEREMVAYIITFGSTNYADSVKGRFTISGDNANNTMWLQMNSLKPEDTAVYYCYAAIRPTDSSTYTSYWGQGTQVTVPP | binds | – | –
3 | nanobody Nb6 (CA16669) against GCase (VHH, nanobody Nb6 (CA16669); they are, as the nanobody domain of m4, in PDB 9FJF; Encoded in a pHEN29 vector) VHH: QVQLVESGGGLVQPGGSLRLSCAASGSIFSINTMGWYRQAPGKEREMVAYIITFGSTNYADSVKGRFTISGDNANNTMWLQMNSLKPEDTAVYYCYAAIRPTDSSTYTSYWGQGTQVTVPP | – | binds | –
4 | Saposin C (SapC) (natural protein, Homo sapiens, UniProt P07602 311-390, looked up, Saposin C, Homo sapiens, the cut product of prosaposin; synthetic gene, codon optimised for E. coli, in pET-28a(+); The His6-tag is followed by a TEV protease cleavage site; no cleavage is described in the purification; source: E. coli BL21(DE3) or BL21(DE3)pLysS, purified (HisTrap, Superdex 75)) SDVYCEVCEFLVKEVTKLIDNNKTEKEILDAFDKMCSKLPKSLSEECQEVVDTYGSSILSILLEEVSPELVCSMLHLCSG | – | – | binding result [4]: binds

More lines, main results first:

Row | binding result [2] | binding result [3] | Binder | further results
5 | binds | – | pro-macrobody PMb1 (nanobody Nb1, CA16655, fused to maltose binding protein) (VHH, nanobody Nb1 (CA16655) raised against GCase; proline-proline linker, told in words; The N-terminal pelB-10xHis-MBP was removed with 3C protease; the C-terminal MBP is part of the pro-macrobody and was detected by anti-MBP blot; By my reading of the printed primers the C-terminal MBP begins at LVIWING after the PP linker and ends at KDAQT followed by PGA; Only the nanobody domain is modelled in …) VHH: QVQLVESGGGLVQPGGSLRLSCAASGFTLDYYAIGWFRQAPGKEREGVSCISSSDGSTYYADSAKGRFTISRDNAKNTVYLQMNSLKPEDTAVYYCATDRGQCTYYSSGYYRDLRWYDYWGQGTQVTVPP | –
6 | – | binds | nanobody Nb1 (CA16655) against GCase (VHH, nanobody Nb1 (CA16655); they are in PDB 9ENA and, as the nanobody domain of m3, in PDB 9FJF; Encoded in a pHEN29 vector; also called Nbs1) VHH: QVQLVESGGGLVQPGGSLRLSCAASGFTLDYYAIGWFRQAPGKEREGVSCISSSDGSTYYADSAKGRFTISRDNAKNTVYLQMNSLKPEDTAVYYCATDRGQCTYYSSGYYRDLRWYDYWGQGTQVTVSS | –
